# From patent US20220064329A1 (Novo Nordisk, published 2022)
# T1: recombinant human activated Factor VII (FVIIa) (human, UniProt P08709 61-212; P08709 213-466, ten glutamate residues of the Gla domain may be gamma-carboxylated)
# T1 construct: chains tethered by a disulfide bond; also called Factor VIIa; rFVIIa
# T1 sequence 1: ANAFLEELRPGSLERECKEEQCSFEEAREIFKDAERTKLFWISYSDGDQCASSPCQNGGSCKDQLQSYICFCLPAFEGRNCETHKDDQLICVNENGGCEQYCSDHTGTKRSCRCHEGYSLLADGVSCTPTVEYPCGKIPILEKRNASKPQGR
# T1 sequence 2: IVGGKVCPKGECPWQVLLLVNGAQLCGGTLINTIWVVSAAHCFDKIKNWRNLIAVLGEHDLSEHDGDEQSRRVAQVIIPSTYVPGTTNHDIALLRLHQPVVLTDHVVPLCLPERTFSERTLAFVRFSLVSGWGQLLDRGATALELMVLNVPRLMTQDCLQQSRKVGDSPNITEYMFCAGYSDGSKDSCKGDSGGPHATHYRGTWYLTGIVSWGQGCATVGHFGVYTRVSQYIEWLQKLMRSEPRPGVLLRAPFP
# Target: T1, recombinant human activated Factor VII …
# Test: BLI (Fortebio)
row,Binder,Kd
1,"VH SEQ ID NO 554 / VL SEQ ID NO 342 (antibody, IgG4, V domains shown, humanized 11F2; IgG4 S228P/kappa) VH: QVQLQESGPGLVKPSDTLSLTCAVSGYSISSDSAWSWIRQFPGKGLEWIGYIQYSGSTNYNPSLKSRVTMSVDTSKNQFSLKLSSVTALDTAVYYCARSVNYYGNSFAVGPWGQGTLVTVSS VL: EIVLTQSPATLSLSPGERATLSCRASQGISDYLHWYQQKPGQAPRLLIKYTSQPATGIPARFSGSGSGRDFTLTISSLEPEDFAVYYCQNGHSFPLTFGAGTKLELK",23 nM
2,"VH SEQ ID NO 554 / VL SEQ ID NO 486 (antibody, IgG4, V domains shown, humanized 11F2; IgG4 S228P/kappa) VH: QVQLQESGPGLVKPSDTLSLTCAVSGYSISSDSAWSWIRQFPGKGLEWIGYIQYSGSTNYNPSLKSRVTMSVDTSKNQFSLKLSSVTALDTAVYYCARSVNYYGNSFAVGPWGQGTLVTVSS VL: EIVLTQSPATLSLSPGERATLSCRASQGVSDYLHWYQQKPGQAPRLLIKYASQPATGIPARFSGSGSGTDFTLTISSLEPEDFGVYYCQNGHSFPLTFGQGTKLEIK",19 nM
3,"VH SEQ ID NO 554 / VL SEQ ID NO 358 (antibody, IgG4, V domains shown, humanized 11F2; IgG4 S228P/kappa) VH: QVQLQESGPGLVKPSDTLSLTCAVSGYSISSDSAWSWIRQFPGKGLEWIGYIQYSGSTNYNPSLKSRVTMSVDTSKNQFSLKLSSVTALDTAVYYCARSVNYYGNSFAVGPWGQGTLVTVSS VL: EIVLTQSPATLSLSPGERATLSCRASQGISDYLHWYQQKPGQAPRLLIKYTSQPATGIPARFSGSGSGTDFTLTISSLEPEDFAVYYCQNGHSFPLTFGQGTKLEIK",16 nM
4,"VH SEQ ID NO 562 / VL SEQ ID NO 326 (antibody, IgG4, V domains shown, humanized 11F2; IgG4 S228P/kappa) VH: QVQLQESGPGLVKPSDTLSLTCAVSGYSISSDSAWSWIRQPPGKGLEWIGYIQYSGSTNYNPSLKSRVTMSRDTSKNQFSLKLSSVTALDTAVYYCARSVNYYGNSFAVGPWGQGTLVTVSS VL: EIVLTQSPATLSLSPGERATLSCRASQGISDYLHWYQQKPGEAPRLLIKYTSQPATGIPARFSGSGSGTDFTLTISSLEPEDFGVYYCQNGHSFPLTFGAGTKLELK",0.78 nM
5,"VH SEQ ID NO 554 / VL SEQ ID NO 478 (antibody, IgG4, V domains shown, humanized 11F2; IgG4 S228P/kappa) VH: QVQLQESGPGLVKPSDTLSLTCAVSGYSISSDSAWSWIRQFPGKGLEWIGYIQYSGSTNYNPSLKSRVTMSVDTSKNQFSLKLSSVTALDTAVYYCARSVNYYGNSFAVGPWGQGTLVTVSS VL: EIVLTQSPATLSLSPGERATLSCRASQGVSDYLHWYQQKPGQAPRLLIKYASQPATGIPARFSGSGSGTDFTLTISSLEPEDFAVYYCQQGHSFPLTFGQGTKLEIK",21 nM
6,"VH SEQ ID NO 562 / VL SEQ ID NO 310 (antibody, IgG4, V domains shown, humanized 11F2; IgG4 S228P/kappa) VH: QVQLQESGPGLVKPSDTLSLTCAVSGYSISSDSAWSWIRQPPGKGLEWIGYIQYSGSTNYNPSLKSRVTMSRDTSKNQFSLKLSSVTALDTAVYYCARSVNYYGNSFAVGPWGQGTLVTVSS VL: EIVLTQSPATLSLSPGERATLSCRASQGISDYLAWYQQKPGQAPRLLIKYASQPATGIPARFSGSGSGTDFTLTISSLEPEDFAVYYCQNGHSFPLTFGQGTKLEIK",6.4 nM
7,"VH SEQ ID NO 554 / VL SEQ ID NO 382 (antibody, IgG4, V domains shown, humanized 11F2; IgG4 S228P/kappa) VH: QVQLQESGPGLVKPSDTLSLTCAVSGYSISSDSAWSWIRQFPGKGLEWIGYIQYSGSTNYNPSLKSRVTMSVDTSKNQFSLKLSSVTALDTAVYYCARSVNYYGNSFAVGPWGQGTLVTVSS VL: EIVLTQSPATLSLSPGERATLSCRASQGLSDYLHWYQQKPGEAPRLLIKYASQPATGIPARFSGSGSGTDFTLTISSLEPEDFAVYYCQNGHSFPLTFGQGTKLEIK",21 nM
8,"VH SEQ ID NO 554 / VL SEQ ID NO 462 (antibody, IgG4, V domains shown, humanized 11F2; IgG4 S228P/kappa) VH: QVQLQESGPGLVKPSDTLSLTCAVSGYSISSDSAWSWIRQFPGKGLEWIGYIQYSGSTNYNPSLKSRVTMSVDTSKNQFSLKLSSVTALDTAVYYCARSVNYYGNSFAVGPWGQGTLVTVSS VL: EIVLTQSPATLSLSPGERATLSCRASQGVSDYLHWYQQKPGQAPRLLIKYASQPATGIPARFSGSGSGTDFTLTISSLEPEDFAVYYCQNGHSFPLTFGAGTKLEIK",20 nM
9,"VH SEQ ID NO 554 / VL SEQ ID NO 494 (antibody, IgG4, V domains shown, humanized 11F2; IgG4 S228P/kappa) VH: QVQLQESGPGLVKPSDTLSLTCAVSGYSISSDSAWSWIRQFPGKGLEWIGYIQYSGSTNYNPSLKSRVTMSVDTSKNQFSLKLSSVTALDTAVYYCARSVNYYGNSFAVGPWGQGTLVTVSS VL: EIVLTQSPATLSLSPGERATLSCRASQGVSDYLHWYQQKPGQAPRLLIKYASQPATGIPARFSGSGSGTDFTLTISSLEPEDVAVYYCQNGHSFPLTFGQGTKLEIK",22 nM
10,"VH SEQ ID NO 562 / VL SEQ ID NO 318 (antibody, IgG4, V domains shown, humanized 11F2; IgG4 S228P/kappa) VH: QVQLQESGPGLVKPSDTLSLTCAVSGYSISSDSAWSWIRQPPGKGLEWIGYIQYSGSTNYNPSLKSRVTMSRDTSKNQFSLKLSSVTALDTAVYYCARSVNYYGNSFAVGPWGQGTLVTVSS VL: EIVLTQSPATLSLSPGERATLSCRASQGISDYLHWYQQKPGEAPRLLIKYTSQPATGIPARFSGSGSGTDFTLTISSLEPEDFAVYYCQNGHSFPLTFGQGTKLEIK",0.92 nM
11,"VH SEQ ID NO 554 / VL SEQ ID NO 502 (antibody, IgG4, V domains shown, humanized 11F2; IgG4 S228P/kappa) VH: QVQLQESGPGLVKPSDTLSLTCAVSGYSISSDSAWSWIRQFPGKGLEWIGYIQYSGSTNYNPSLKSRVTMSVDTSKNQFSLKLSSVTALDTAVYYCARSVNYYGNSFAVGPWGQGTLVTVSS VL: EIVLTQSPATLSLSPGERATLSCRASQGVSDYLHWYQQKPGQAPRLLIKYTSQPATGIPARFSGSGSGTDFTLTISSLEPEDFAVYYCQNGHSFPLTFGQGTKLEIK",18 nM

# Further binders by falling Kd, results first:
row,Kd,Binder
1,19 nM,"VH SEQ ID NO 554 / VL SEQ ID NO 350 (antibody, IgG4, V domains shown, humanized 11F2; IgG4 S228P/kappa) VH: QVQLQESGPGLVKPSDTLSLTCAVSGYSISSDSAWSWIRQFPGKGLEWIGYIQYSGSTNYNPSLKSRVTMSVDTSKNQFSLKLSSVTALDTAVYYCARSVNYYGNSFAVGPWGQGTLVTVSS VL: EIVLTQSPATLSLSPGERATLSCRASQGISDYLHWYQQKPGQAPRLLIKYTSQPATGIPARFSGSGSGTDFTLTISSLEPEDFAVYYCQNGHSFPLTFGAGTKLELK"
2,19 nM,"VH SEQ ID NO 554 / VL SEQ ID NO 470 (antibody, IgG4, V domains shown, humanized 11F2; IgG4 S228P/kappa) VH: QVQLQESGPGLVKPSDTLSLTCAVSGYSISSDSAWSWIRQFPGKGLEWIGYIQYSGSTNYNPSLKSRVTMSVDTSKNQFSLKLSSVTALDTAVYYCARSVNYYGNSFAVGPWGQGTLVTVSS VL: EIVLTQSPATLSLSPGERATLSCRASQGVSDYLHWYQQKPGQAPRLLIKYASQPATGIPARFSGSGSGTDFTLTISSLEPEDFAVYYCQNGHSFPLTFGQGTKLEIK"
3,19 nM,"VH SEQ ID NO 554 / VL SEQ ID NO 454 (antibody, IgG4, V domains shown, humanized 11F2; IgG4 S228P/kappa) VH: QVQLQESGPGLVKPSDTLSLTCAVSGYSISSDSAWSWIRQFPGKGLEWIGYIQYSGSTNYNPSLKSRVTMSVDTSKNQFSLKLSSVTALDTAVYYCARSVNYYGNSFAVGPWGQGTLVTVSS VL: EIVLTQSPATLSLSPGERATLSCRASQGVSDYLHWYQQKPGEAPRLLIKYASQPATGIPARFSGSGSGTDFTLTISSLEPEDFAVYYCQNGHSFPLTFGQGTKLEIK"
4,18 nM,"VH SEQ ID NO 554 / VL SEQ ID NO 334 (antibody, IgG4, V domains shown, humanized 11F2; IgG4 S228P/kappa) VH: QVQLQESGPGLVKPSDTLSLTCAVSGYSISSDSAWSWIRQFPGKGLEWIGYIQYSGSTNYNPSLKSRVTMSVDTSKNQFSLKLSSVTALDTAVYYCARSVNYYGNSFAVGPWGQGTLVTVSS VL: EIVLTQSPATLSLSPGERATLSCRASQGISDYLHWYQQKPGQAPRLLIKYASQPATGIPARFSGSGSGTDFTLTISSLEPEDFAVYYCQNGHSFPLTFGQGTKLEIK"
5,1.2 nM,"VH SEQ ID NO 562 / VL SEQ ID NO 334 (antibody, IgG4, V domains shown, humanized 11F2; IgG4 S228P/kappa) VH: QVQLQESGPGLVKPSDTLSLTCAVSGYSISSDSAWSWIRQPPGKGLEWIGYIQYSGSTNYNPSLKSRVTMSRDTSKNQFSLKLSSVTALDTAVYYCARSVNYYGNSFAVGPWGQGTLVTVSS VL: EIVLTQSPATLSLSPGERATLSCRASQGISDYLHWYQQKPGQAPRLLIKYASQPATGIPARFSGSGSGTDFTLTISSLEPEDFAVYYCQNGHSFPLTFGQGTKLEIK"
